Literature values as cited in patent US20250341526A1, “NOVEL DYES” (Quantum-Si Incorporated, priority 2024, published 2025).
Residue numbers refer to the chain shown, from its start.

B1: PS530: amino acid recognition protein, SEQ ID NO: 158 (protein, listed as Acropora millepora)
chain: MLCGKVFKVGEPTYSCRDCGYDNTCVLCINCFQKSIHKNHHYKMNTSGGGGVCDCGDVEAWKEGEACEIHQQ
B2: PS511: amino acid recognition protein, SEQ ID NO: 139 (protein, listed as Habropoda laboriosa)
chain: MICGKVFKMGEATYSCKECGVDPTCVLCADCFKQSAHRHHKYRMGTSSGGGFCDCGDIEAWKKEPFCNTHLA
B3: PS516: amino acid recognition protein, SEQ ID NO: 144 (protein)
chain: MLCGKVFKTGEPTYSCRDCANDPTCVLCIDCFQNGAHKNHRYKMNTSGGGGYCDCGDQEAWTSHPFCNLHSP
modifications: Crassostrea gigas
B4: PS510: amino acid recognition protein, SEQ ID NO: 138 (protein, listed as Camponotus floridanus)
chain: MICGRMFKMGEPTYSCRQCGMDSTCVLCVDCFKQSAHRNHKYKMGTSSGGGCCDCGDTEAWKNEPFCKIHLA
B5: PS515: amino acid recognition protein, SEQ ID NO: 143 (protein, listed as Wasmannia auropunctata)
chain: B4 chain with R5K, M9I, Q18E, N63K, I69T, L71V, A72V
B6: PS502: amino acid recognition protein, SEQ ID NO: 130 (protein, listed as Helobdella robusta)
chain: MVCLKVFKLGEPTYSCRSVTCGMDPTCVLCVDCFQNSSHKLHKYKMSTSGGGGYCDCGDLEAWKADPLCDLHKL
B7: PS505: amino acid recognition protein, SEQ ID NO: 133 (protein, listed as Brachionus plicatilis)
chain: MVCGRVFKSGEPSYFCRECGTDPTCVLCSICFRHSKHRYHKYVMMTSGGGGYCDCGDPEAWKSDPCCELHMP
B8: PS518: amino acid recognition protein, SEQ ID NO: 146 (protein, listed as Nilaparvata lugens)
chain: MVCGRVFKMGEPSYHCRECGMDATCVLCVDCFKKSSHRNHKYKMGTSIGGGCCDCGDVEAWKTEPYCEVHIA
B9: PS513: amino acid recognition protein, SEQ ID NO: 141 (protein, listed as Pyrenophora seminiperda)
chain: MPCGHIFKNGEATYRCKTCTADDTCVLCARCFDASDHEGHQVFVSVSPGNSGCCDCGDDEAWVRPVHCNIHSA
B10: PS508: amino acid recognition protein, SEQ ID NO: 136 (protein)
chain: MLCGRVFKEGETVYSCRDCAIDPTCVLCIECFQKSVHKSHRYKMHASAGGGFCDCGDLEAWKTGPCCSQHDP
modifications: Anabarilius graham
B11: PS526: amino acid recognition protein, SEQ ID NO: 154 (protein, listed as Maylandia zebra)
chain: B10 chain with I29M, E30D, K34D, A48S, L58V, T63I, C66Y, Q69K
B12: PS520: amino acid recognition protein, SEQ ID NO: 148 (protein, listed as Monopterus albus)
chain: B10 chain with I29M, E30D, K34D, A48S, L58V, T63I, Q69K
B13: PS512: amino acid recognition protein, SEQ ID NO: 140 (protein, listed as Mastacembelus armatus)
chain: B10 chain with I29M, E30D, K34D, L58V, T63I, C66Y, Q69K
B14: PS517: amino acid recognition protein, SEQ ID NO: 145 (protein)
chain: MMCGRVFKMGEPTYSCRECGVDSTCVLCVGCFQQSAHRDHKYKMGTSGGGGCCDCGDTEAWKRDPFCEIHMV
modifications: Harpegnathos saltator
B15: PS523: amino acid recognition protein, SEQ ID NO: 151 (protein, listed as Saccharomycetaceae sp.)
chain: MAKSHRHTGRNCGRAFQPGEPLYRCQECAYDDTCVLCISCFNPDDHVNHHVSTHICNELHDGICDCGDAEAWNVPLHCKAEED
B16: PS521: amino acid recognition protein, SEQ ID NO: 149 (protein)
chain: MLCGRVFRSGEPTYSCRDCAVDPTCVLCIDCFNNGAHRKHKYRMSTSSGGGYCDCGDKEAWKTDPLCEIHRK
modifications: Lingula anatine
B17: PS528: amino acid recognition protein, SEQ ID NO: 156 (protein, listed as Kluyveromyces lactis)
chain: MHSKFNHAGRICGAKFRVGEPIYRCKECSFDDTCVLCVNCFNPKDHVGHHVYTSICTEFNNGICDCGDKEAWNHELNCKGAED
B18: PS504: amino acid recognition protein, SEQ ID NO: 132 (protein, listed as Galleria mellonella)
chain: MLCGKVFKQGEPAYSCRECGMDNTCVLCVECFKVSPHRHHKYKMGQSGGGGCCDCGDTEAWKRDPFCERHAK
B19: PS519: amino acid recognition protein, SEQ ID NO: 147 (protein, listed as Manduca sexta)
chain: B18 chain with K5R, P36A, R69L, K72A
B20: PS527: amino acid recognition protein, SEQ ID NO: 155 (protein, listed as Mizuhopecten yessoensis)
chain: MLCGKVFKYGEPTYSCRDCANDPTCVLCIDCFQKSAHKKHRYKMSTSGGGGYCDCGDSEAWKTAPFCSNHKA
B21: PS507: amino acid recognition protein, SEQ ID NO: 135 (protein, listed as Sparassis crispa)
chain: MPCGHIFKKGESCFRCKDCALDDSCVLCSKCFEATDHANHNVSFFIAQQSGGCCDCGDIEAWLVPIDCPFHPV
B22: PS501: amino acid recognition protein, SEQ ID NO: 129 (protein, listed as Amanita thiersii)
chain: MICGQIIGKGESCFRCRDCGLDESCVMCSQCFHATDHINHNVSFFVSQQPGGCCDCGDEEAWKKPMNCPYHPP
B23: PS514: amino acid recognition protein, SEQ ID NO: 142 (protein, listed as Tribolium castaneum)
chain: MVCGRVFKLGEPTYSCRECGMDNTCVLCVNCFKNSEHRFHKYKMGTSQGGGCCDCGDVEAWKKAPFCDVHIA
B24: PS522: amino acid recognition protein, SEQ ID NO: 150 (protein, listed as Vombatus ursinus)
chain: MLCGKVFKSGETTYSCRDCAIDPTCVLCMNCFQSSVHKNHRYKMHTSTGGGFCDCGDTEAWKTGPFCTIHEP
B25: PS525: amino acid recognition protein, SEQ ID NO: 153 (protein, listed as Mus musculus)
chain: B24 chain with N30D, T68V, I69D
B26: PS529: amino acid recognition protein, SEQ ID NO: 157 (protein)
chain: B24 chain with S9G, N30D, S34N, V36I, F66L, T68A, I69N
modifications: Chelonia mydas
B27: PS524: amino acid recognition protein, SEQ ID NO: 152 (protein, listed as Drosophila ficusphila)
chain: MVCGKVFKNGEPTYSCRECGVDPTCVLCVNCFKRSAHRFHKYKMSTSGGGGCCDCGDDEAWKKDHYCQLHLA
B28: Saccharomyces cerevisiae GID10: amino acid recognition protein, SEQ ID NO: 125 (protein, listed as Saccharomyces cerevisiae)
chain: MTSLNIMGRKFILERAKRNDNIEEIYTSAYVSLPSSTDTRLPHFKAKEEDCDVYEEGTNLVGKNAKYTYRSLGRHLDFLRPGLRFGGSQSSKYTYYTVEVKIDTVNLPLYKDSRSLDPHVTGTFTIKNLTPVLDKVVTLFEGYVINYNQFPLCSLHWPAEETLDPYMAQRESDCSHWKRFGHFGSDNWSLTERNFGQYNHESAEFMNQRYIYLKWKERFLLDDEEQENQMLDDNHHLEGASFEGFYYVCLDQLTGSVEGYYYHPACELFQKLELVPTNCDALNTYSSGFEIA
B29: PS503: amino acid recognition protein, SEQ ID NO: 131 (protein, listed as Hydra vulgaris)
chain: MFCGRLFKVGDPTYTCKDCAADPTCVFCHDCFHQSVHTKHKYKLFASQGRGGYCDCGDKEAWTNDPACNKHKE
B30: PS509: amino acid recognition protein, SEQ ID NO: 137 (protein)
chain: MICGHGFKTGEPTYSCRDCATDPTCVLCISCFQKSPHREHRYKMSASGGGGYCDCGDPEAWKIEPFCEQHKP
modifications: Lottia gigantean
B31: PS506: amino acid recognition protein, SEQ ID NO: 134 (protein, listed as Capitella teleta)
chain: MLCGKVFKMGELTYSCRDCGTDPTCVLCMDCFQHSAHKKHRYKMAASGGGGYCDCGDREAWKAEPFCDVHKR

Tested on: amino acid at a terminal position of a polypeptide
Details: Table 2; amino acid at terminal position (phosphotyrosine also internal); inferred from literature and/or demonstrated by the inventors; cited from earlier work

Molecule | Binding Pref.
B1 | K, R, H
B2 | K, R, H
B3 | K, R, H
B4 | K, R, H
B5 | K, R, H
B6 | K, R, H
B7 | K, R, H
B8 | K, R, H
B9 | K, R, H
B10 | K, R, H
B11 | K, R, H
B12 | K, R, H
B13 | K, R, H
B14 | K, R, H
B15 | K, R, H
B16 | K, R, H

Molecule | Binding Pref.
B17 | K, R, H
B18 | K, R, H
B19 | K, R, H
B20 | K, R, H
B21 | K, R, H
B22 | K, R, H
B23 | K, R, H
B24 | K, R, H
B25 | K, R, H
B26 | K, R, H
B27 | K, R, H
B28 | P, M, V
B29 | K, R, H
B30 | K, R, H
B31 | K, R, H
